Measured values as given in patent US11530240B2, “Catheter injectable cyclic peptide pro-gelators for myocardial tissue engineering” (The Regents of the University of California, priority 2017, dated 2022).
Bridges are numbered along the chain shown (N, C = ends). Where no end group is shown, it is not given here. rhodamine = 5(6)-carboxytetramethylrhodamine label attached at the N-terminus

Tests used:
[1] = biological target: T1, MMP-9 (recombinant human catalytic domain) (Homo sapiens, UniProt P14780); experiment: In vitro enzyme cleavage of cyclic progelator by MMP-9; type: biochemical; details: 1:1000 enzyme/substrate, 5 hr; denatured enzyme elicited no response
T1 construct: MMP-9 (recombinant human catalytic domain); purchased Enzo Life Sciences BML-SEro360
T1 sequence (P14780 107-444 limits assumed): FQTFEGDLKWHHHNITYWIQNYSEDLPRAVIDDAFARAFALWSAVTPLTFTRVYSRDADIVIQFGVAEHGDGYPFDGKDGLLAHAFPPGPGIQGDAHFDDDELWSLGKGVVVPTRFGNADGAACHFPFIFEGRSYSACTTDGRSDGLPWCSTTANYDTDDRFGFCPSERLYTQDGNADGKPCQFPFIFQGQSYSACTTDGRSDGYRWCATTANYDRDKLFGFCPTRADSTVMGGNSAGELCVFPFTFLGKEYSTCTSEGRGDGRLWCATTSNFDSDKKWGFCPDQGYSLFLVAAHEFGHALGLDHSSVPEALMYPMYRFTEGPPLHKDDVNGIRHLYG
Text: (§1) Transmission electron microscopy (TEM).
(§2) In vitro enzyme cleavage of cyclic peptide progelator. […] Control samples utilized denatured enzymes under the same conditions.

[2] = biological target: T2, Porcine pancreatic elastase (Sus scrofa, UniProt P00772); experiment: In vitro enzyme cleavage of cyclic progelator by elastase; type: biochemical; details: 1:250 enzyme/substrate, 5 hr; denatured enzyme elicited no response
T2 construct: purchased EMD Millipore 3246821000U
T2 sequence (P00772 27-266): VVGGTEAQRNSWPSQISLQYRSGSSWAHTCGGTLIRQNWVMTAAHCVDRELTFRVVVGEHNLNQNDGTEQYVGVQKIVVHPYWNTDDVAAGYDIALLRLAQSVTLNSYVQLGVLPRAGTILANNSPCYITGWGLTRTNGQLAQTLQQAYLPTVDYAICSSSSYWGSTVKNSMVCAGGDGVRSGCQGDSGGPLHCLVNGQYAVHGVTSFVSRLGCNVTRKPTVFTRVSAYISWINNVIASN
Text: as §1, §2

Thermolysin [3] = biological target: T3, Thermolysin (Bacillus thermoproteolyticus, UniProt P00800); details: 1:4500 enzyme/substrate
T3 sequence (P00800 233-548): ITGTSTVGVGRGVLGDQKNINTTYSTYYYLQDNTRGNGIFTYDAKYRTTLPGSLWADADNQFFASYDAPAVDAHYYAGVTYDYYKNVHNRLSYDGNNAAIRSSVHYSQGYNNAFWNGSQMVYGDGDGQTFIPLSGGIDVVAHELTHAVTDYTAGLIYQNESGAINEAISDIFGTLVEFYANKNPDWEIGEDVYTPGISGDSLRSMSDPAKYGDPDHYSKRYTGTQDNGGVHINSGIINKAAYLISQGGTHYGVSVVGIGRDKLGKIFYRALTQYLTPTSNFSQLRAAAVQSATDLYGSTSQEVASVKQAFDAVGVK
Method: General information. […] Thermolysin (V400A) was acquired from Promega, as a lyophilized powder.
In vitro enzyme cleavage of cyclic peptide progelator. Unless otherwise stated, enzyme cleavage experiments were performed on progelator at a final concentration of 500 μM in 1× enzyme cleavage buffers. […] Thermolysin cleavages were performed at 1:4500 enzyme/substrate molar ratio in 1× buffer (1×DPBS, pH 7.4) for 15 min. […] Control samples utilized denatured enzymes under the same conditions. […] Thermolysin was inactivated by incubation with 10% (v/v) EDTA (0.5 M, pH 8.0)

[4] = Viscoelastic measurements of functionalized SAP hydrogels (gel capacity); type: physicochemical; details: 15 mg/mL in 1×DPBS, 2.5 rad/s
Method: (§3) Rheological characterization. All peptide samples were prepared at 10 mM peptide, except for those used to assess the effect of SAP functionalization with respect to weight (15 mg/mL). Viscous and viscoelastic properties were assessed using a stress-controlled rheometer (TA Instruments AR-02) equipped with a Peltier plate to control temperature and a 20 mm diameter parallel plate geometry. Unless otherwise stated all measurements were taken at an angular frequency of 2.5 rad s^−1, strain of 0.5%, and temperature of 37° C. Measurements were performed with a gap height of 1000 μm and repeated three times (except for step-strain tests) to ensure reproducibility. To prevent water evaporation, mineral oil was wrapped around the edge of the geometry at the air-sample interface. For viscoelastic measurements the apparatus was used in oscillatory mode. […] The dynamic moduli of the hydrogels were measured as a function of frequency in the range 0_25-100 rad s^−1 at a strain of 0.5%. Continuous step-strain oscillations were used to monitor hydrogel healing through disruption (3 min, 100% strain) and recovery (15 min. 0.5% strain) cycles (n=3). Temperature sweeps were measured by increasing the apparatus temperatures from 21-40° C. at a ramp rate of 0.5° C./min. […] The viscosity of the samples was measured as a function of shear rate in the range 0.1-10 s^−1 (5% tolerance.

Thermolysin [5] = biological target: T3, Thermolysin; experiment: Time course rheological analysis of bulk gelation after thermolysin addition; type: physicochemical; set-up: purchased Promega V400A; details: 10 mM in 1×DPBS, thermolysin 1:4500 added at t=40 min, 37° C.
Method: as §3

whole human blood [6] = experiment: Activated clotting times (ACT) with whole human blood; details: positive control, collagen 0.095 mg/mL
Method: (§4) Hemocompatibility analysis.
Activated clotting times (ACT) with whole human blood. A Hemochron 801 instrument calibrated with an electronic system verification (ESV) device was used to measure activated clotting time (ACT) of whole human blood. Activated clotting times (ACT) were determined using recalcified citrated whole human blood to minimize variability in starting time points for clotting in all assays.^71 To each Hemochron P214 tube with glass beads was added 4 μL CaCl2 (1.1 M) and 36 μL peptide stock or additive (12.2× final blood concentration). Samples were mixed thoroughly for 30 s to soak the glass beads and incubated 30 s at 37° C. Citrated whole human blood (400 μL) was then added (t=0 s), mixed by hand for 10 s, and added to the instrument. Time points at which the magnet was displaced by clot formation were recorded by the instrument. Collagen (0.095 mg/mL) was used as a positive control to […] clotting time. Vehicle (1×DPBS) served as a standard for blood without additive. Samples without calcium, serving as the negative control, exceeded instrument maximum time range (>1500 sec). Each experiment was performed n=6 times with averages and standard error of the mean (SEM) plotted.

whole human blood [7] = experiment: Whole blood hemostasis kinetics (non-activated whole blood clotting assay); details: positive controls; recalcified whole human blood
Method: as §4
Whole blood hemostasis kinetics. Changes to time-dependent hemostasis were monitored using a non-activated whole blood clotting assay.^72 Briefly, 100 μL of citrated whole human was mixed with 10 μL of peptide or collagen stock (11.5× final blood concentration) and 5 μL of CaCl2 (230 mM). Collagen (0.095 mg/mL) and glass coverslips were used as positive controls to increase clotting rates from an additive and contact initiated perspective, respectively. […] Aliquots (100 μL) were transferred to a 12-well TCP, covered, and incubated at r.t. for 5 min, 15 min, 30 min, and 45 min. Each sample was prepared in triplicate. At the end of each time point, RBCs not caught in the thrombus were lysed by gently adding 3 mL distilled H2O and incubating for 5 min. Each well was sampled (200 μL), taking care not to disturb the clot, and transferred to a 96 well plate for analysis. Released hemoglobin from lysis was detected by measuring the absorbance at 405 nm (height 4.0 mm, 100 flashes) using a plate reader. Extent of clotting is inversely proportional to measured absorbance. Averages (n=3) and standard error of the mean (SEM) are plotted.

red blood cells (RBCs) = experiment: Hemolysis of red blood cells (RBCs); type: cell-based, human; details: positive (normalization) control 1% Triton X-100; isolated RBCs, 1 hr incubation; n=4
Method: as §4
Hemolysis assay. Acute toxicity of cyclic peptide progelator was measured with a RBC hemolysis assay specific to biomacromolecular drug analysis, as previously described.^73 Averages (n=4) and standard error of the mean (SEM) for absorbance measurements (at 540 nm) were plotted.

## Rho-KFDF (SEQ ID NO:1)Cyclic: rhodamine labeled cyclized KFDF progelator (SEQ ID NO:7) (rhodamine-CKFDFKFDFKFDFPLGLAGC; disulfide 1-20)
[1]
  response to active MMP-9 cleavage (visual, TEM): induced visible aggregation in the reaction vial and entangled fibrous meshes by TEM
[2]
  response to active elastase cleavage (visual, TEM): induced visible aggregation in the reaction vial and entangled fibrous meshes by TEM
Thermolysin [3]
  response to thermolysin incubation (TEM): induced fiber formation by TEM

## C(KFDF)3PLGLAGC (SEQ ID NO: 7) (CKFDFKFDFKFDFPLGLAGC) [KFDF (SEQ ID NO:1)Linear, modified linear SAP primed for cyclization, no fluorescent label]
[4]
  gelling capacity (tanδ<1) and strain tolerance vs unmodified SAP: no significant disruptive effects to gelling capacity

## Rho-KLDL (SEQ ID NO:5)Cyclic: rhodamine labeled cyclized KLDL progelator (SEQ ID NO:6) (rhodamine-CKLDLKLDLKLDLPLGLAGC; disulfide 1-20)
[1]
  response to active MMP-9 cleavage (visual, TEM): induced visible aggregation in the reaction vial and entangled fibrous meshes by TEM
[2]
  response to active elastase cleavage (visual, TEM): induced visible aggregation in the reaction vial and entangled fibrous meshes by TEM
Thermolysin [3]
  response to thermolysin incubation (TEM): induced fiber formation by TEM

## C(KLDL)3PLGLAGC (SEQ ID NO: 6) (CKLDLKLDLKLDLPLGLAGC) [KLDL (SEQ ID NO:5)Linear, modified linear SAP primed for cyclization, no fluorescent label]
[4]
  gelling capacity (tanδ<1) and strain tolerance vs unmodified SAP: no significant disruptive effects to gelling capacity

## CKLDLKLDLKLDLPLGLAGC (SEQ ID NO:6) (disulfide 1-20) [KLDL (SEQ ID NO:5)Cyclic, unlabeled cyclized enzyme-responsive progelator]
Thermolysin [5]
  time at which steady state of shear moduli (G′, G″) was reached: 200 min

## collagen [reference compound]
Whole human blood [6]
  effect on clot time vs vehicle (ACT): significant clot time reduction
Whole human blood [6]; whole human blood, n=6
  Activated clotting time (ACT), Average Time: 150 s
Whole human blood [7]
  clot rate (hemostasis kinetics): increased the clot rate

## Triton X-100 [1% Triton X-100]
Red blood cells (RBCs)
  % Hemolysis: 100.00%
